The assay addresses T1, human orexin receptor 2 (human) (UniProt O43614).
T1 sequence: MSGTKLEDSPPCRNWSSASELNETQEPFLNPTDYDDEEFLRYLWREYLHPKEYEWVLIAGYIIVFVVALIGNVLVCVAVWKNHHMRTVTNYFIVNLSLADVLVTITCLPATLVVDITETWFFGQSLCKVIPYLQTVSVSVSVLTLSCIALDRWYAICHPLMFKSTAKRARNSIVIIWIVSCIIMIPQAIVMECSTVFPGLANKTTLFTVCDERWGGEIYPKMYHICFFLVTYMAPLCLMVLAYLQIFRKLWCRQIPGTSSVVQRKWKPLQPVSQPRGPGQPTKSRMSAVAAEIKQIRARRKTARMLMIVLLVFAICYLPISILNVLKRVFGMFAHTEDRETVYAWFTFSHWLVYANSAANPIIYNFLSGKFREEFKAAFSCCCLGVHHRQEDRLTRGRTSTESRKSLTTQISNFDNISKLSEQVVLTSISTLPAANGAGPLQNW

We go through 2 molecules from publication PMC11379823.

Molecule “orexin-B (from UniProt O43612 70-97) (peptide)” came in with an intracellular accumulation of IP1 in hOX2R/CHO-EA cells, EC50 of 3.2 nM; an intracellular phosphorylation of CREB (Ser133) in hOX2R/CHO-EA cells, EC50 of 4.7 nM; a β-arrestin recruitment in hOX2R/CHO-EA cells (PathHunter), EC50 of 4 nM.

B1: orexin-A (peptide)
peptide: QPLPDCCRQKTCSCRLYELLHGAGNHAAGILTL
B1 displayed an intracellular accumulation of IP1 in hOX2R/CHO-EA cells, EC50 of 0.84 nM; an intracellular phosphorylation of CREB (Ser133) in hOX2R/CHO-EA cells, EC50 of 1.8 nM; a β-arrestin recruitment in hOX2R/CHO-EA cells (PathHunter), EC50 of 3 nM.
